Substitutions are numbered along the chain they refer to.
T1: APC (20 amino acid repeats) (Homo sapiens, UniProt P25054)
T1 construct: for the amino acids Ser1259Asp 1400 (APC 20 amino acid repeats); expressed in transfected cells; host or cells: yeast (two-hybrid, Matchmaker, Clontech)
T1 sequence (P25054 1253-1394 limits assumed): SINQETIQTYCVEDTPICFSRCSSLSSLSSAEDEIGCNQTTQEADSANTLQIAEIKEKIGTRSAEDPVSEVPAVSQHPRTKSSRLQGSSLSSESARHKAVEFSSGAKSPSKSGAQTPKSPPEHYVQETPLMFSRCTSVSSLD

T2: APC (15 amino acid repeats) (Homo sapiens, UniProt P25054)
T2 construct: of human APC for the amino acids His1012–Glu1215 (APC 15 amino acid repeats); expressed in transfected cells; host or cells: yeast (two-hybrid, Matchmaker, Clontech)
T2 sequence (P25054 1006-1209 limits assumed): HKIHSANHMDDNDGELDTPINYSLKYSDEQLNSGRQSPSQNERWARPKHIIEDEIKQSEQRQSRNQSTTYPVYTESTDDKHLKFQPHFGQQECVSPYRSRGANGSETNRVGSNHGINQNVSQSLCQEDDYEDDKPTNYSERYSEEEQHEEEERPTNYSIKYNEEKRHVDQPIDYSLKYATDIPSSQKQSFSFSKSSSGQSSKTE

B1: human β-catenin (Leu218-Leu781) mutant Arg 386 to alanine, Gal-4 activation domain fusion (other, not shown: large carriers; small tags and cut ends)
chain: LHNLSHHREGLLAIFKSGGIPALVKMLGSPVDSVLFYAITTLHNLLLHQEGAKMAVRLAGGLQKMVALLNKTNVKFLAITTDCLQILAYGNQESKLIILASGGPQALVNIMRTYTYEKLLWTTSRVLKVLSVCSSNKPAIVEAGGMQALGLHLTDPSQRLVQNCLWTLANLSDAATKQEGMEGLLGTLVQLLGSDDINVVTCAAGILSNLTCNNYKNKMMVCQVGGIEALVRTVLRAGDREDITEPAICALRHLTSRHQEAEMAQNAVRLHYGLPVVVKLLHPPSHWPLIKATVGLIRNLALCPANHAPLREQGAIPRLVQLLVRAHQDTQRRTSMGGTQQQFVEGVRMEEIVEGCTGALHILARDVHNRIVIRGLNTIPLFVQLLYSPIENIQRVAAGVLCELAQDKEAAEAIEAEGATAPLTELLHSRNEGVATYAAAVLFRMSEDKPQDYKKRLSVELTSSLFRTEPMAWNETADLGLDIGAQGEPLGYRQDDPSYRSFHSGGYGQDALGMDPMMEHEMGGHHPGADYPVDGLPDLGHAQDLMDGLPPGDSNQLAWFDTDL
B2: Arg 457: human β-catenin mutant, Arg 457 substituted by alanine (arm 8) (protein)
chain: B1 chain with A169R, R240A
modifications: left off: large carriers; small tags and cut ends
B3: Lys 292: human β-catenin mutant, Lys 292 substituted by alanine (arm 4) (protein)
chain: B1 chain with K75A, A169R
modifications: left off: large carriers; small tags and cut ends
B4: Lys 394: human β-catenin mutant, Lys 394 substituted by alanine (arm 7) (protein)
chain: B1 chain with A169R, K177A
modifications: left off: large carriers; small tags and cut ends

Key:
[1] = target: human APC amino acids His1012-Glu1215 (APC 15 amino acid repeats) fused to Lex-A (vector BTM 116) (human); test: yeast 2-hybrid, β-galactosidase reporter; percent of wild type β-catenin
Sequence of human APC amino acids His1012-Glu1215 (APC 15 amino acid repeats) fused to Lex-A (vector BTM 116) (human) (P0A7C2 other isoform, or with tags, fused parts or gaps limits assumed, form in doubt): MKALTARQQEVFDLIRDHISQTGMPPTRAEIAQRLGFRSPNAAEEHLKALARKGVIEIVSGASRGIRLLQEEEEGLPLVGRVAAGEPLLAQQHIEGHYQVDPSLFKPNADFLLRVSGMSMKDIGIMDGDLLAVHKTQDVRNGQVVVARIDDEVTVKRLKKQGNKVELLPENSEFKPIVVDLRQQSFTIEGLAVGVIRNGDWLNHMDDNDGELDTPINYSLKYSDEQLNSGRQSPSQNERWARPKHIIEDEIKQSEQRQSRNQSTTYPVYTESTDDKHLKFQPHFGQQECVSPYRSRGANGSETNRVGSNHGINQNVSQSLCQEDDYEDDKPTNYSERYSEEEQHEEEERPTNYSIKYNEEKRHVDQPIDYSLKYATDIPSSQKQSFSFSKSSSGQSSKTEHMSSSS

[2] = target: conductin amino acids Ala342-Arg465 fused to Lex-A (vector BTM 116) (UniProt P0A7C2); test: as above
Sequence of conductin amino acids Ala342-Arg465 fused to Lex-A (vector BTM 116) (P0A7C2 other isoform, or with tags, fused parts or gaps limits assumed, form in doubt): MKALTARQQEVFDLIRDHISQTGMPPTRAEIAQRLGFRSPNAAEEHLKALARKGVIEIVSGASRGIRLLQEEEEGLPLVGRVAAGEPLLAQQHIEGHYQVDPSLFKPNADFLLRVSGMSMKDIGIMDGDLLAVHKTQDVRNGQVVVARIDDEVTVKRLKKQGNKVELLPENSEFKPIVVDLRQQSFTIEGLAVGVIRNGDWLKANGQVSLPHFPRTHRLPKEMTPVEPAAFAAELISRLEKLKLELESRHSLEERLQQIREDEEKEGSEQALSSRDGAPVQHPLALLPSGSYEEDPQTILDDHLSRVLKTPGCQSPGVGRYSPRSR

[3] = target: human APC amino acids Ser1259-Asp1400 (APC 20 amino acid repeats) fused to Lex-A (vector BTM 116) (human); test: as above
Sequence of human APC amino acids Ser1259-Asp1400 (APC 20 amino acid repeats) fused to Lex-A (vector BTM 116) (human) (P0A7C2 other isoform, or with tags, fused parts or gaps limits assumed, form in doubt): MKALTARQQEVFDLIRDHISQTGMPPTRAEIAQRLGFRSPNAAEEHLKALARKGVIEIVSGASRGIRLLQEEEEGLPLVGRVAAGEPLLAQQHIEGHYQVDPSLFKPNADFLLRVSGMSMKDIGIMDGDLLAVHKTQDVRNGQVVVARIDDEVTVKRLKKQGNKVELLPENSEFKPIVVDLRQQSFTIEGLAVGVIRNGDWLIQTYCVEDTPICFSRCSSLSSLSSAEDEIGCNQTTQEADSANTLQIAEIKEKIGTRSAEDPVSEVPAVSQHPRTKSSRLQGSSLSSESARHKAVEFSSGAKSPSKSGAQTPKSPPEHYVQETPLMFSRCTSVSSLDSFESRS

[4] = target: T3, LEF-1 amino acids 1-99 fused to Lex-A (vector BTM 116) (UniProt P0A7C2 1-202; P27782 1-99); test: as above
T3 construct: Order of the fusion follows the vector; also called LEF-1/TCF-4
T3 sequence (P0A7C2 other isoform, or with tags, fused parts or gaps limits assumed): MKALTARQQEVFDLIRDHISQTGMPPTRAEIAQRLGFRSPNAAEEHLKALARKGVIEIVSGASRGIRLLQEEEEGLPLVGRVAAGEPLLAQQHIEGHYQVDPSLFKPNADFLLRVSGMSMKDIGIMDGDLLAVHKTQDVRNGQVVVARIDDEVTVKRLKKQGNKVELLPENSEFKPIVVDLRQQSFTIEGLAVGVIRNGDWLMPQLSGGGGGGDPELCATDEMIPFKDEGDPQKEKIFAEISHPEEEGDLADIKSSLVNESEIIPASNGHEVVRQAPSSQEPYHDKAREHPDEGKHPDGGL
Method: 4. Preparation and testing of mutants of β-catenin modulating the interaction with LEF-1, APC, conductin or E-cadherin The mutagenesis of β-catenin in the armadillo repeats 3–8 was carried out by means of the "mutagenesis kit" of the company Clontech according to the producer's record and the mutants were checked by sequencing (FIG. 5). In all mutants the original amino acid was substituted by alanine. For analyzing the interactions the cDNA of human β-catenin (armadillo repeat 3 up to the C-terminal end of the protein) coding for the amino acids Leu218–Leu7 µl or its mutants was cloned into the fusion vector for the activation domain of Gal-4 (pGAD424, Clontech). The cDNA for the binding domains of the interaction partners was cloned into the Lex-A fusion vector BTM 116. To this end, the cDNA of LEF-1 for the amino acids 1–99, conductin for the amino acids Ala342–ARG465; of human APC for the amino acids His1012–Glu1215 (APC 15 amino acid repeats) and for the amino acids Ser1259Asp 1400 (APC 20 amino acid repeats) and E-cadherin for the amino acids Gin773–Asp884 (cytoplasmatic domain) were amplified with the respective primers PCR. The interaction of the Lex-A hybrids with β-catenin and its mutants was quantified by means of the β-galactosidase reporter activity in the yeast 2-hybrid system (report: "Matchmaker". Clontech) (Tab. 2 and FIG. 6).

conductin = target: T4, conductin (Mus musculus, UniProt O88566); test: yeast 2-hybrid: interaction of β-catenin mutants with conductin; assay type: binding; conditions: yeast 2-hybrid, alanine mutants
T4 construct: conductin for the amino acids Ala342–ARG465; expressed in transfected cells; host or cells: yeast (two-hybrid, Matchmaker, Clontech)
T4 sequence (O88566 343-465 limits assumed): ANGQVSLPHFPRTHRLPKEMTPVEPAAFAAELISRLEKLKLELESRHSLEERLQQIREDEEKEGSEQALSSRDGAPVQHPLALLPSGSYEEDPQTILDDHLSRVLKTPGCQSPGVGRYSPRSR
Procedure, shortened: (§1)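 Alanine-substituted human β-catenin mutants (armadillo repeat 3 to C-terminus, from Leu218) fused to Gal4 activation domain; partner fragments fused to LexA: E-cadherin Gln773–Asp884, APC His1012–Glu1215 or Ser1259–Asp1400, conductin Ala342–Arg465. Interaction quantified by β-galactosidase reporter activity in yeast.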

LEF-1 = target: T5, LEF-1 (Mus musculus, UniProt P27782); test: yeast 2-hybrid: interaction of β-catenin mutants with LEF-1; assay type: binding; conditions: yeast 2-hybrid, alanine mutants
T5 construct: the cDNA of LEF-1 for the amino acids 1–99; expressed in transfected cells; host or cells: yeast (two-hybrid, Matchmaker, Clontech)
T5 sequence (P27782 1-99): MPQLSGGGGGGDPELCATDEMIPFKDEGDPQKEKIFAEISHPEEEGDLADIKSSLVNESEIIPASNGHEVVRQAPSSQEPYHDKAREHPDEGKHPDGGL

[5] = target: T1, APC (20 amino acid repeats); test: yeast 2-hybrid: interaction of β-catenin mutants with APC 20 amino acid repeats; assay type: binding; conditions: yeast 2-hybrid, alanine mutants
Procedure, shortened: as §1

E-cadherin = target: T6, E-cadherin (Mus musculus, UniProt P09803); test: yeast 2-hybrid: interaction of β-catenin mutants with E-cadherin; assay type: binding; conditions: alanine mutants
T6 construct: E-cadherin for the amino acids Gin773–Asp884 (cytoplasmatic domain); expressed in transfected cells; host or cells: yeast (two-hybrid, Matchmaker, Clontech)
T6 sequence (P09803 773-884): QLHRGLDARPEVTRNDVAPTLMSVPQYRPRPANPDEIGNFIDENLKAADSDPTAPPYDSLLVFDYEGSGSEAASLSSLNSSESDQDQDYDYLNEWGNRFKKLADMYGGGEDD
Method: The mutagenesis of β-catenin in the armadillo repeats 3–8 was carried out by means of the “mutagenesis kit” of the company Clontech according to the producer's record and the mutants were checked by sequencing (FIG. 5). In all mutants the original amino acid was substituted by alanine. For analyzing the interactions the cDNA of human β-catenin (armadillo repeat 3 up to the C-terminal end of the protein) coding for the amino acids Leu218–Leu7 μl or its mutants was cloned into the fusion vector for the activation domain of Gal-4 (pGAD424, Clontech). The cDNA for the binding domains of the interaction partners was cloned into the Lex-A fusion vector BTM 116. To this end, the cDNA of LEF-1 for the amino acids 1–99, conductin for the amino acids Ala342–ARG465; of human APC for the amino acids His1012–Glu1215 (APC 15 amino acid repeats) and for the amino acids Ser1259Asp 1400 (APC 20 amino acid repeats) and E-cadherin for the amino acids Gin773–Asp884 (cytoplasmatic domain) were amplified with the respective primers PCR. The interaction of the Lex-A hybrids with β-catenin and its mutants was quantified by means of the β-galactosidase reporter activity in the yeast 2-hybrid system (report: “Matchmaker”. Clontech) (Tab. 2 and FIG. 6).

[6] = target: T2, APC (15 amino acid repeats); test: yeast 2-hybrid: interaction of β-catenin mutants with APC 15 amino acid repeats; assay type: binding; conditions: yeast 2-hybrid, alanine mutants
Procedure, shortened: as §1

| Molecule | share of the interaction with wild type β-catenin in percent [1] [%] | share of the interaction with wild type β-catenin in percent [2] [%] | share of the interaction with wild type β-catenin in percent [3] [%] | Interaction With Conductin, share of wild type β-catenin interaction (conductin) [%] | Interaction With LEF-1, share of wild type β-catenin interaction (LEF-1) | Interaction With APC-20, share of wild type β-catenin interaction [5] | Interaction With E-Cadherin, share of wild type β-catenin interaction (E-cadherin) | Interaction With APC-15, share of wild type β-catenin interaction [6] | also measured |
| --- | --- | --- | --- | --- | --- | --- | --- | --- | --- |
| human β-catenin (Leu218-Leu781) mutant Lys 435 to alanine, Gal-4 activation domain fusion (from UniProt P35222 218-781) | 30 | 42 | – | – | – | – | – | – | – |
| human β-catenin (Leu218-Leu781) mutant Phe 253 to alanine, Gal-4 activation domain fusion (from UniProt P35222 218-781) | – | 17 | 40 | – | – | – | – | – | – |
| human β-catenin (Leu218-Leu781) mutant Trp 383 to alanine, Gal-4 activation domain fusion (from UniProt P35222 218-781) | 59 | – | 0 | – | – | – | – | – | – |
| human β-catenin (Leu218-Leu781) mutant Trp 338 to alanine, Gal-4 activation domain fusion (from UniProt P35222 218-781) | – | 20 | 55 | – | – | – | – | – | – |
| human β-catenin (Leu218-Leu781) mutant Lys 292 to alanine, Gal-4 activation domain fusion (from UniProt P35222 218-781) | – | 5 | 28 | – | – | – | – | – | – |
| B1 | 12 | 45 | – | – | – | – | – | – | share of the interaction with wild type β-catenin in percent [4]: 35% |
| B2 | – | – | – | 36 | — (Interactions marked by — correspond to 60–100% of the wild type interaction) | — (Interactions marked by — correspond to 60–100% of the wild type interaction) | — (Interactions marked by — correspond to 60–100% of the wild type interaction) | — (Interactions marked by — correspond to 60–100% of the wild type interaction) | – |
| B3 | – | – | – | 5 | — (Interactions marked by — correspond to 60–100% of the wild type interaction) | 28% | — (Interactions marked by — correspond to 60–100% of the wild type interaction) | — (Interactions marked by — correspond to 60–100% of the wild type interaction) | – |
| B4 | – | – | – | 42 | — (Interactions marked by — correspond to 60–100% of the wild type interaction) | — (Interactions marked by — correspond to 60–100% of the wild type interaction) | — (Interactions marked by — correspond to 60–100% of the wild type interaction) | — (Interactions marked by — correspond to 60–100% of the wild type interaction) | – |

From patent publication US7067474B1, “Agents for treating human illnesses based on β-catenin, and the production and use thereof” (Max-Delbruck-Centrum fur Molekulare Medizin, priority 1998, dated 2006)
